Measured values: patent publication US5688671A, “Mutant aspartokinase gene” (Ajinomoto Co., Inc., priority 1993, dated 1997)
Residue numbers refer to the chain shown, from its start.

B1: Cys: mutant aspartokinase 279 Ala→Cys, plasmid p399AKAC (p399AKACB) (protein, UniProt P26512 1-421, looked up, variant A279C)
Aspartokinase: MALVVQKYGGSSLESAERIRNVAERIVATKKAGNDVVVVCSAMGDTTDELLELAAAVNPVPPAREMDMLLTAGERISNALVAMAIESLGAEAQSFTGSQAGVLTTERHGNARIVDVTPGRVREALDEGKICIVAGFQGVNKETRDVTTLGRGGSDTTAVALAAALNADVCEIYSDVDGVYTADPRIVPNAQKLEKLSFEEMLELAAVGSKILVLRSVEYARAFNVPLRVRSSYSNDPGTLIAGSMEDIPVEEAVLTGVATDKSEAKVTVLGISDKPGECAKVFRALADAEINIDMVLQNVSSVEDGTTDITFTCPRSDGRRAMEILKKLQVQGNWTNVLYDDQVGKVSLVGAGMKSHPGVTAEFMEALRDVNVNIELISTSEIRISVLIREDDLDAAARALHEQFQLGGEDEAVVYAGTGR
B2: Phe: mutant aspartokinase 279 Ala→Phe, plasmid p399AKAF (p399AKAFB) (protein, UniProt P26512 1-421, looked up, variant A279F)
Aspartokinase: B1 Aspartokinase with C279F
B3: Tyr: mutant aspartokinase 279 Ala→Tyr, plasmid p399AKAY (p399AKAYB) (protein, UniProt P26512 1-421, looked up, variant A279Y)
Aspartokinase: B1 Aspartokinase with C279Y
B4: Val: mutant aspartokinase 279 Ala→Val, plasmid p399AKAV (p399AKAVB) (protein, UniProt P26512 1-421, looked up, variant A279V)
Aspartokinase: B1 Aspartokinase with C279V

test system: AK; assay: AK enzyme activity and inhibition by lysine/threonine in cell-free extracts of AK-deficient Escherichia coli Gif106M1 transformants; type: biochemical, Corynebacterium glutamicum; details: E. coli Gif106M1 cell-free extracts
Excerpt: Bacteriol. 112, 84-92 (1972), Theze, J. et al., J. […] It is known that most of genes of bacteria belonging to the genus Corynebacterium are expressed in Escherichia coli. In addition, the AK gene was ligated at a position downstream from lac promoter on pHSG399. Thus it was postulated that the gene could be expressed in Escherichia coli. […] Thus it was confirmed that AK from the bacteria belonging to the genus Corynebacterium was expressed and operated in cells of Escherichia coli. Subsequently, cell-free extracts were prepared from bacterial cells, and the enzyme activity of AK was measured. Upon measurement of the enzyme activity of AK, various concentrations of lysine and threonine were added to enzyme reaction solutions to investigate the degree of inhibition (FIG. 2). […] (Ki value: 0.4 mM→5.0 mM). […] Cell-free extracts were prepared, and enzymes were analyzed.

Molecule	concerted inhibition by lysine+threonine	inhibition by lysine alone as compared with the wild type
B1	enhanced	equivalent to that in the wild type
B2	–	enhanced
B3	–	enhanced

same assay, conditions: E. coli Gif106M1 cell-free extracts; Table 4

Molecule	Specific activity [mU/mg protein]
B1	15.4
B2	18.7
B4	21.8
B3	14.4

same assay, conditions: lysine 5 mM+threonine 5 mM; activity without addition = 100%; E. coli Gif106M1 extracts

Molecule	5 mM Lys + Thr (degree of desensitization of inhibition, activity-holding ratio) [%]
B1	17.0
B2	18.2
B4	52.3
B3	19.4

same assay, conditions: lysine 5 mM; activity without addition = 100%; E. coli Gif106M1 extracts

Molecule	5 mM Lys (degree of desensitization of inhibition, activity-holding ratio) [%]
B1	56.3
B2	12.1
B4	51.1
B3	14.4

same assay, conditions: threonine 5 mM; activity without addition = 100%; E. coli Gif106M1 extracts

Molecule	5 mM Thr (degree of desensitization of inhibition, activity-holding ratio) [%]
B1	108.1
B2	103.0
B4	98.3
B3	103.6

test system: aspartokinase; assay: Aspartokinase (AK) activity of cell-disrupted solutions of Corynebacterium glutamicum strains, with and without L-lysine/L-threonine; type: biochemical, Corynebacterium glutamicum (Brevibacterium lactofermentum); details: 2 mM lysine + threonine; plasmids introduced into AJ12036
Excerpt: When a wild type strain is used as a donor for the DNA fragment containing the AK gene, a DNA fragment containing a wild type AK gene can be obtained. The DNA fragment containing the gene for AK in which synergistic feedback inhibition by L-lysine and L-threonine is substantially desensitized can be obtained by using a mutant strain in which synergistic feedback inhibition on the AK activity by L-lysine and L-threonine is substantially desensitized. The mutant strain can be obtained, for example, from a group of cells subjected to an ordinary mutation treatment, ultraviolet light irradiation, or a treatment with a mutating agent such as N-methyl-N'-nitro-N-nitrosoguanidine (NTG). The AK activity can be measured by using a method described in Miyajima, R. et al., The Journal of Biochemistry (1968), 63(2), 139-148.
Strains were prepared by introducing the wild type AK plasmid p399AKYB and the mutant AK plasmid p399AK9B respectively into AJ12036 strain (FERM P-7559) as a wild type strain of Corynebacterium glutamicum (Brevibacterium lactofermentum). The genes were introduced into Corynebacterium by means of an electric pulse method. The aspartokinase activity was measured for Corynebacterium glutamicum (Brevibacterium lactofermentum) AJ12036 strain as a host, AJ12690 strain harboring the wild type AK plasmid, and AJ12691 (FERM P12918) strain harboring the mutant AK plasmid. The activity was measured in accordance with an ordinary method (see Miyajima, R. et al., The Journal of Biochemistry (1968) 63(2), 139-148). […]
Strains were prepared by introducing 8 kinds of the plasmids shown in Table 3 into AJ12036 strain (FERM P-7559) as a wild type strain of Corynebacterium glutamicum (Brevibacterium lactofermentum) in the same manner as Example 3. The AK activity was measured for each of the strains. […] The desensitization degree of inhibition by lysine and/or threonine was similar to those in Example 6.

Molecule	2 mM Lys + Thr (desensitization degree of inhibition) [%]
B1	60.6
B2	32.4
B4	75.5
B3	32.2

same assay, conditions: lysine 5 mM; plasmids introduced into AJ12036

Molecule	5 mM Lys (desensitization degree of inhibition) [%]
B1	66.5
B2	14.6
B4	60.5
B3	16.1

same assay, conditions: plasmids introduced into AJ12036; Table 5

Molecule	Specific activity [mU/mg protein]
B1	267.0
B2	447.7
B4	448.9
B3	425.6

same assay, conditions: threonine 5 mM; plasmids introduced into AJ12036

Molecule	5 mM Thr (desensitization degree of inhibition) [%]
B1	135.7
B2	105.0
B4	103.5
B3	104.8

test system: Corynebacterium glutamicum (Brevibacterium lactofermentum) AJ12036; assay: L-lysine productivity evaluated by cultivation in production medium; type: cell-based; details: plasmids introduced into AJ12036; cultivation as in Example 3
Experimental: The lysine productivity was evaluated by cultivation for the wild type strain AJ12036, the wild type AK plasmid-harboring strain AJ12690, and the mutant AK plasmid-harboring strain AJ12691 (FERM P-12918). The evaluation by cultivation was performed by inoculating the strains to a production medium (containing glucose 100 g, (NH4)2 SO4 55 g, KH2 PO4 1 g, MgSO4.7H2 O 1 g, soybean protein acid hydrolysate "Mamenou" (product of Ajinomoto Co., Ltd., trade name) 50 ml, FeSO4.7H2 O 10 mg, MnSO4.4H2 O 10 mg, nicotinic acid amide 5 mg, and CaCO3 50 g in 1 l of pure water, pH 8.0), and cultivating them with reciprocatory shaking at 31.5° C. for 72 hours. […] The plasmid-holding ratio upon completion of the cultivation was measured by using an index of chloramphenicol resistance as a drug resistance marker of the plasmid.
The lysine productivity was further evaluated by cultivation for the 9 kinds of these strains by using a method similar to that in Example 3.

Molecule	Lys--HCl [g/L]
B1	13.41
B2	25.14
B4	25.02
B3	25.12

test system: AK; assay: Thermal stability of AK, treatment at 55° C. for 1.5 hour; type: biochemical, Corynebacterium glutamicum; details: FIG. 6
Experimental: The activity-holding ratio after a treatment at 55° C. for 90 minutes is indicated by %.
Thermal stability was investigated as an index of stability of the enzyme structure constructed by the introduction of mutation. The treatment condition was set at 55° C. for 1.5 hour in which the activity of the wild type AK was about 80%.

Molecule	thermal stability compared with the wild type
B1	higher stability than that of the wild type
B2	higher stability than that of the wild type
B4	highest stability
B3	higher stability than that of the wild type
